Test results reported in the DeepSol protein solubility set.

Test: soluble on expression in E. coli; label from the status in PepcDB or PDB records

Sequence	soluble on expression in E. coli
MHRGGQPLKKRRGSFKMAELDQLPDESSSAKALVSLKEGSLSNTWNEKYSSLQKTPVWKGRNTSSAVEMPFRNSKRSRLFSDEDDRQINTRSPKRNQRVAMVPQKFTATMSTPDKKASQKIGFRLRNLLKLPKAHKWCIYEWFYSNIDKPLFEGDNDFCVCLKESFPNLKTRKLTRVEWGKIRRLMGKPRRCSSAFFEEERSALKQKRQKIRLLQQRKVADVSQFKDLPDEIPLPLVIGTKVTARLRGVHDGLFTGQIDAVDTLNATYRVTFDRTGLGTHTIPDYEVLSNEPHETMPIAAFGQKQRPSRFFMTPPRLHYTPPLQSPIIDNDPLLGQSPWRSKISGSDTETLGGFPVEFLIQVTRLSKILMIKKEHIKKLREMNTEAEKLKSYSMPISIEFQRRYATIVLELEQLNKDLNKVLHKVQQYCYELAPDQGLQPADQPTDMRRRCEEEAQEIVRHANSSTGQPCVENENLTDLISRLTAILLQIKCLAEGGDLNSFEFKSLTDSLNDIKSTIDASNISCFQNNVEIHVAHIQSGLSQMGNLHAFAANNTNRD	soluble
MIGGRLKSLRGKRTQEEIASHIGVSRARYSHYENGRSEPDYDTLQKLADYFQVTTDYLLTGKDKKSDDDMFSDPDLQLAYRDMQDFSPESKQQAIEFINYLKEKEKNRKPKNK	not soluble
MGSDKIHHHHHHMKATLKSLRETKANPAVSIFVKTHREHPANDKDPIALKNQLKVVEERLTNEYDKRTATTILDNIHAKTKEHNHNLNLDTLAIFASTDDVQVIRMPIDTTERVVISHRFATRDLVRDMASAVHYYTLVLTRDKARLIEVSNDRVIREFDLDDTAQNNMENIPFPIDNNGLHTTSDGGSDRSANNDSSALKEFFNQVDKSVQELWGEHKMPLVVVGDTKNIGYYKDVCDRPDNIIATVSNATNLEEGSAQHIINSVQEAVEGYRTSLHQAALGEIDKARGANRLQTDLQEVYRSAFQGVGDTLYVRRGYIQPAKIDEKAQTLSLADDSGAEGITDDAIGEIIEHVIHNGGKAVFMPQDIMSEDQPIALVTRY	not soluble
MGSDKIHHHHHHARRNILRQTWMSKANSEIVANGRMKPLFLVGLTPGEYKMKKMVMQEAKLYGDIIVVDMNDNYEELTYKSLAILLYGVSKAPRYQMIGKIDEDVMFFPDKLTELYDQGFIDATPLRIYGLKMQSGANIFRDKTHRWYVPESSYSCSKFPEYVSGMLYMVTWEAAQQIIKSTKYRDFIQVEDVFLTGILAEDLGISVKNLP	not soluble
MGSSHYHHHHSSGLVPRGSHMAEKPISPTKTRTRFEDIQAHYDVSDDFFALFQDPTRTYSCAYFEPPELTLEEAQYAKVDLNLDKLDLKPGMTLLDIGCGWGTTMRRAVERFDVNVIGLTLSKNQHARCEQVLASIDTNRSRQVLLQGWEDFAEPVDRIVSIEAFEHFGHENYDDFFKRCFNIMPADGRMTVQSSVSYHPYEMAARGKKLSFETARFIKFIVTEIFPGGRLPSTEMMVEHGEKAGFTVPEPLSLRPHYIKTLRIWGDTLQSNKDKAIEVTSEEVYNRYMKYLRGCEHYFTDEMLDCSLVTYLKPGAAA	soluble
LADTSPMDKKGRKAEDALVVNVRANLYWWEFEYPDYGIITSQELIVPTDQRVYFNLKASDVKHSFWIPSVGGKLDTNTDNENKFFLTFDSKRSKEAGDMFFGKCAELCGPSHALMDFKVKTMSAKEFQGWTKEMKNYKSTAESDLAKQGEELFKEKNCLSCHAVEPNDKRAEAARTAPNLATFGERTKVAGVKEANKENVKAWLKDPDSIKPGNKMTGTYPKLSDSETNALYEYLKGLKAE	not soluble
MGSDKIHHHHHHMTALDFLPNPPIKQELITPLFHLPYPNPSPIDPKVYKEQSNQAKALAQVFKKEEAHDFDYSSGSFLELFLALALEKKKLAIASSLHYNALKAAREVQKLGIEIFWLHPDVKSGVIEPNSLQEARTRGFELFFLPWANEDLLTLNPLESYGFSLDERLFVEASYPLALGIALPLLEKAHWLINGEILGIPRGYGAILGGEIPLHRPLMRANLFGVLHAALKAREILIENDDQKTLFYEHLSALLGENLSLFAPLKSCLPNALPLRFKGIRARSLIQALLLEKITSLNGQECLFGFSKPSSVLQSMGYDEDEARELLSVSFLPFGSIEELERIAKILALRYKQIHLYS	not soluble
MGSDKIHHHHHHMEILSVGEKIKRARIYKRLTLKDICDDKVSVSKMSCIENGKITPDNEILEFVAKKLNVALDYLKYDVKDQFQSNLDNLKDIEEGKKDEYLRYNVYYAEQYEYYDIAFQFMHELFNLYVNKNKLDIVQSLTSEYYDICRKVTDCDNRSMYNLDIGKYLLASREYRQAINYYSRVRKELKTGFSENKKRIKMLIESYYYETLSYILCEDYDNAYELEKELLELIEYVDTDNQHAKIYSVMMFLCLKKNIDQFDYYKEKIENYCDINSEIKARVMYVCALKMINDEKVEEAKGYIAKALEQFQGKIENKYIPFIVELVNEVSRRNNLERYRGICDLILDYSIGIENSVLMERCYYLKSRIFKASNDLESYEMYMNLALDLLIKSGNEDDIYTRYMEMGNMYSTLGNVKDALRYFNLAINMSNKM	not soluble
MAKKTSSKGKLPPGPSPLPVLGNLLQMDRKGLLRSFLRLREKYGDVFTVYLGSRPVVVLCGTDAIREALVDQAEAFSGRGKIAVVDPIFQGYGVIFANGERWRALRRFSLATMRDFGMGKRSVEERIQEEARCLVEELRKSKGALLDNTLLFHSITSNIICSIVFGKRFDYKDPVFLRLLDLFFQSFSLISSFSSQVFELFSGFLKYFPGTHRQIYRNLQEINTFIGQSVEKHRATLDPSNPRDFIDVYLLRMEKDKSDPSSEFHHQNLILTVLSLFFAGTETTSTTLRYGFLLMLKYPHVTERVQKEIEQVIGSHRPPALDDRAKMPYTDAVIHEIQRLGDLIPFGVPHTVTKDTQFRGYVIPKNTEVFPVLSSALHDPRYFETPNTFNPGHFLDANGALKRNEGFMPFSLGKRICLGEGIARTELFLFFTTILQNFSIASPVPPEDIDLTPRESGVGNVPPSYQIRFLARHHHHHH	soluble
MGSDKIHHHHHHMKYMIGIDGGGTKTEAIAFDKDGNELVRATSGFGNILIDFEEALVHIMEAIDQCQKGVLNEHCVCICLGLAGVSGVNTNELTLRLKKKYGTPIEVFNDAMIAHAAVLKGKDGILTIGGTGTICLGKKGEVYEYSGGWGHILGDAGSGYWIGLQALKRMANQLDQGIRLCPLSLRIQDEFQLLTASHIKRLVYRSSKDKVAAITPFVIREARNGNDAAHEIMMQAGKELARITIDVYNKMQLDLLVSIAVSGSILRFVPEIYDEFKKCCEKSVGEVTFVLQSEPAVKGTYYLMKNMYFKK	not soluble
MGSDKIHHHHHHMTPLPSFRLSWPSALQRLCHAPAGKHMPAGAYQVHFPRLELVLSNRYHYSHEGCENASLSAQEALFIPAEHWTLPNWCANGEVLHILFDYARIGFSLVRSGPQGVISTHKESMVLAQRGSLNGMLDVLAGLCRDGADPEVLRLQGQALLALLQSLYDEARDSQWQQGGNLFRAICLYISEHLYAPLTREDVALRFSISATHLSRLFRQHLGLGFCEFLSHARLDLAKALLRQGQLPLSRVAARCGYADVNYFHRVFKQRFAMTPCAYRREFA	not soluble
MSRLPLLLLSVLLATPAAQASDCPDLALVLALDSSLSIDRAEFALQAEGYAEAFRSPAVQAALAAAGTVDVAAVVWSDGAAPPARLGWQRIAAPEDARRLAVRLAALERVAPGRTGVGGGLAAALEMLAGHGCAGRRLVNLSGDGRETLAPRMGLRGQLMRARAEAEALGATVNALAVTDEEADLPDWFRSHVIVGPGAFVMETREFRGFAEAVARKLVREIAPPALAAGRPGLPPHRLTPGGRDHPARRSLEHHHHHH	not soluble
MKSRFSARQQNSDNTADENKSTTTAVLLTNLGSPDEPTTSAVRRYLREFLSDTRVVEIPRLIWLLILHGIILRIRPAKSAKLYQTVWQDDGAPLISITAAQKEKMATKIKSQYGDNVIVDFAMRYGNPSIASVLQKFQQQGVDKLVVLPLYPQYAGPTTASTFDAVSKELQKWRYIPSIHFLNTYHNNPFYIQALAETVKEHVASHGKPERLVLSYHGMPELFHKWGDPYYDFCQE	not soluble
MGSDKIHHHHHHLTVPKKLLLSDLLKHNVRCENGIDHGPVITPWMHPPVHRILGFISRPSNLRLEREVWRLDQLKGINQQEVYVKGVCSVSDEQTLDRFPTLMNANVFNKSGQKIGLIADFLFEPKKGNIQYYLVSRSNPLIPGTSRWLLSIDQIIDKQPGSISCDIETFEDLPIQKASLKEEFLSKSRKWKAQFQDLTYNASDKLEGWIDDQISESDNDSYEMLNDDPSYDDWIDNLDIDSSEEFNRMNKSKKNTNSTNERDLDPWI	not soluble
MIKESIILKNLEVPTGNICVIKGDKGKLEFLSLGDYGKEVNVKADFLGITRDLEGVPNGKVQPLTKKWVVTMSTQYGCDSGCKFCDVPKVGKGVNVTYNDLKTQLEQALNLHPEIDRTERLNIHYARMGEPSWNNDVLDFTRNLKNIVKPYIGESLIHPVFTTMCPNKNKFLAHRINEWVDIKNNLFQGDAGLQLSINSTNENQRRDMFRGNALTLNEISSIGNDLPMPKGRKYCLNFALADEYEVDAKVLKKLFDPSKFMVKITPLHKTVSSIENDIKTTKGYVSYTPYKDIENDLKKMGFDVLVFVPSYDEDLGRITCGNVILSGSLPKCKYKINLEHHHHHH	not soluble
SLYIEMVDETGQVSKEMLQQTQEILEFAAQKLGKEDKEMAVTFVTNERSHELNLEYRDTDRPTDVISLEYKPELEIAFDEEDLLENPELAEMMSEFDAYIGELFISIDKAHEQAEEYGHSFEREMGFLAVHGFLHINGYDHYTPEEEAEMFGLQEEILTAYGLTRQ	soluble
GPGSMSDDTRYMYPARKAHAMDLGSSLNPEGDQKQTWGSVASVADAMSPTAEIKPSAPQVTHFGTGLGMQSSTGDPTLQEADSDGDKTEAVNEFDLAAYSKEDLTQTLHKRIMSRMFSAFDVTQVGYLDINKLKELCVYVGRNMSQEASEKMFDELKGIDGHITFDVFWNWWTTYPDTKMTKDTFSLVSADFSVPYHQQQLKIKDEGEIFTPSYRVKYYFKDMETGLRRRVSPWHDVPLYVRDPVRTKPENIRANRYNFICEIPKWTRAKFEIATGEPFNPIKQDIKNGVPRFYKHGDMMWNYGAFPQTWESTEVIFEDGVSGDNDPIDGVEIGMRQMRVGEIHPVRILGVLGMIDDGQMDWKVICMSVNDPVARFIKDIDDIPKFLPGCLDALREWFRVYKICQGGVENKFAFNGEYKDKTYAMKVVDESHYMWENLRKIKKKEEV	soluble
MGSDKIHHHHHHMETPMTMSQVDAVVRDPASVVTAIESRFSCRAFSPDRPVSRQQVEEILRIARCAASSTNTQPWKVYVLQGDRRDALVAQVCAAHDATRADSSLTAEYGEVDGYYPSEWVSPYIDRRRHNGWTLYGHLGIGKGEKDKMHAQGQRNYRFFDAPVGLMFTIDRVMGRGSLIDYGMFLQTLMLAARALGLHTCPQAAWNNCAKIVLPFIGAGANEMLVCGMALGYADQSAPVNTYRTPRETVESFTRWI	not soluble
MEAYLKKLCFEYQVEEKEVKELLARMERVYLDKGETIASATMPEQSLYIIVSGILHTFTTQQGEDKTVRFLSEGDAILCYNTSKHSVKTLTRCVAYYISEDEIEELCATSITFSNLIRQMMEYQFYLKEEMSVNARKLTIRERYLSLLSEIPDILYRVPLKYITYYLGADVTSLGYLAGSCK	not soluble
GMSESPTAGRASLAPLREFITGLSALLDEQPGEARILREGGALLARLVARDDWLPDAFAQPHPEYYQQMLLHCDSAERFSIVSFVWGPGQRTPIHDHTVWGLIGMLRGAEYSQPFVLDGSGRPVLHGEPTRLEPGHVEAVSPTVGDIHRVHNAYDDRVSISIHVYGANIGGVRRSVYTEAGERKPFISGYSNPYLPNPWDRSKDSAAS	soluble
